{"source": "patent US20190167815", "key": {"SBS#75114 (synthetic)": {"system": "SBS#75114 (synthetic)", "experiment": "cell_activity", "conditions": "KRAB fusion mRNA, C9 line, isoform-specific RT-qPCR"}, "SBS#75115 (synthetic)": {"system": "SBS#75115 (synthetic)", "experiment": "cell_activity", "conditions": "KRAB fusion mRNA, C9 line, isoform-specific RT-qPCR; microarray: only C9orf72 repressed"}}, "data": [{"sequence": "CACGCCCCGGCCCCGGCCCCGGCCCCTA (double strand) [C9orf72 reverse site, frame i]", "values": [{"measurement": "activity", "setting": "SBS#75114 (synthetic)", "result": "> 70", "unit": "% repression"}, {"measurement": "activity", "setting": "SBS#75115 (synthetic)", "result": "> 70", "unit": "% repression"}]}]}
